Target: T1, ヒト心筋由来トロポニンI (human, UniProt P19429 2-210)
T1 construct: It is not the protein on the chip; also called human cardiac troponin I; cTnI
Experiment: SPR (Biacore T100), troponin I on a CM5 chip, scFv as analyte

T1 sequence (P19429 2-210 limits assumed): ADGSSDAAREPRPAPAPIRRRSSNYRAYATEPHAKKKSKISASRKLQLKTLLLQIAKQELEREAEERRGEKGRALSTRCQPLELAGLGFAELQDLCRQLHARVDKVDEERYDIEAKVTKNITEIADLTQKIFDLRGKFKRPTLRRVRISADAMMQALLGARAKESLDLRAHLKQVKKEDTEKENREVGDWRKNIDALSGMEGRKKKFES

B1: 野生型scFv抗体フラグメント(配列番号:62) (scFv)
scFv: DVVLTQSPLTLSVTIGQPASISCKSSQSLLDSDGKTYLNWLLQRPGQSPKRLIYLVSKLDSGVPDRFTGSGSGTDFTLKISRVEAEDLGVYYCWQGTHFPLTFGAGTKLEIKRGGGGSGGGGSGGGGSQLQLQQSGAELVRSGASVKLSCTASGFNIKDYYMNWVKQRPEQGLEWIGWIDPANGDTAYAPRFQVKATMTADKSSNTAYLQLSSLTSEDTAVYYCNADLPMDQWGQGTSVTVSSAAALEHHHHHH
notes: also called 野生scFv抗体フラグメント; 野生型scFv抗体フラグメント
B1: binds.

From patent JP2013172663A (dated 2013)
